Laboratory results taken from paper PMC3358306 (PLoS ONE, 2012).
Several values for one entry are separate records, joined by “and”; a condition that tells them apart may be missing. Equal values may be shown once.

Columns and labels:
AUC = molecular target: the molecule itself; assay: AUC
[1] = molecular target: the molecule itself; assay: SEC; analytical Superdex 200, sample diluted in buffer with 2 mM ATP; 50 mM Tris pH 8.0, 200 mM NaCl, 0.2% β-mercaptoethanol; 3 µg/µl protein
[2] = molecular target: the molecule itself; assay: SEC; analytical Superdex 200, sample diluted in buffer with 2 mM adenosine; 50 mM Tris pH 8.0, 200 mM NaCl, 0.2% β-mercaptoethanol; 3 µg/µl protein
[3] = molecular target: the molecule itself; assay: SEC; analytical Superdex 200, no ligand; 50 mM Tris pH 8.0, 200 mM NaCl, 0.2% β-mercaptoethanol; 3 µg/µl protein; size by calibration proteins

B1: Archaeoglobus fulgidus Rio1 kinase Y200D mutant (enzyme, UniProt O28471 1-258, looked up)
chain: MKDLKKIESYLDKLRIKEKDGEERKIYAEVLDGRTLKTLYKLSAKGYITAMGGVISTGKEANVFYADGVFDGKPVAMAVKIYRIETSEFDKMDEYLYGDERFDMRRISPKEKVFIWTEKEFRNLERAKEAGVSVPQPYTYMKNVLLMEFIGEDELPAPTLVELGRELKELDVEGIFNDVVENVKRLYQEAELVHADLSEDNIMYIDKVYFIDMGQAVTLRHPMAESYLERDVRNIIRFFSKYGVKADFEEMLKEVKGE
notes: Rio1 kinase of Archaeoglobus fulgidus, full length, with Tyr 200 mutated to Asp; also called afRio1 Y200D; afRio1Y200D
AUC
  stoichiometry N: 4 and 3

B2: human Rio1 kinase, residues 106 to 494, unphosphorylated (domain or fragment, UniProt Q9BRS2 106-494, looked up)
chain: STPADKVLRKFENKINLDKLNVTDSVINKVTEKSRQKEADMYRIKDKADRATVEQVLDPRTRMILFKMLTRGIITEINGCISTGKEANVYHASTANGESRAIKIYKTSILVFKDRDKYVSGEFRFRHGYCKGNPRKMVKTWAEKEMRNLIRLNTAEIPCPEPIMLRSHVLVMSFIGKDDMPAPLLKNVQLSESKARELYLQVIQYMRRMYQDARLVHADLSEFNMLYHGGGVYIIDVSQSVEHDHPHALEFLRKDCANVNDFFMRHSVAVMTVRELFEFVTDPSITHENMDAYLSKAMEIASQRTKEERSSQDHVDEEVFKRAYIPRTLNEVKNYERDMDIIMKLKEEDMAMNAQQDNILYQTVTGLKKDLSGVQKVPALLENQVEERT
notes: Rio1 kinase, human, residues 106 to 494; monomer MW 45.1 kDa as printed; also called hRio1; unphosphorylated hRio1; source: size exclusion; purified in the presence of 1 mM adenosine to prevent autophosphorylation
[1]
  stoichiometry N: 2
[2]
  stoichiometry N: 4

B3: autophosphorylated human Rio1 kinase, residues 106 to 494 (domain or fragment, UniProt Q9BRS2 106-494, looked up)
chain: STPADKVLRKFENKINLDKLNVTDSVINKVTEKSRQKEADMYRIKDKADRATVEQVLDPRTRMILFKMLTRGIITEINGCISTGKEANVYHASTANGESRAIKIYKTSILVFKDRDKYVSGEFRFRHGYCKGNPRKMVKTWAEKEMRNLIRLNTAEIPCPEPIMLRSHVLVMSFIGKDDMPAPLLKNVQLSESKARELYLQVIQYMRRMYQDARLVHADLSEFNMLYHGGGVYIIDVSQSVEHDHPHALEFLRKDCANVNDFFMRHSVAVMTVRELFEFVTDPSITHENMDAYLSKAMEIASQRTKEERSSQDHVDEEVFKRAYIPRTLNEVKNYERDMDIIMKLKEEDMAMNAQQDNILYQTVTGLKKDLSGVQKVPALLENQVEERT
modifications: autophosphorylated; site not given
notes: Rio1 kinase, human, residues 106 to 494, autophosphorylated; Same construct as m4, autophosphorylated in vitro; also called phosphorylated hRio1; autophosphorylated hRio1; source: purified hRio1 incubated at 25°C for 1 hr in 50 mM Tris pH 8.0, 200 mM NaCl, 2 mM MgCl2 and 0.2% β-mercaptoethanol
[3]
  stoichiometry N: 2
